Laboratory results from article PMC6776665, “A tri-ionic anchor mechanism drives Ube2N-specific recruitment and K63-chain ubiquitination in TRIM ligases” (Nature Communications, 2019).

What was measured:
ubiquitin (WT) = target: T1, ubiquitin (WT) (UniProt P0CG48 1-76); test: crystal structure; T21-R with Ube2N^C87K/K92A~Ub, 2.8 Å, space group P1, two complexes in the asymmetric unit (2xT21-R, 2xUbe2N~Ub); conditions: both partners purified
T1 construct: WT ubiquitin, the cut product of the ubiquitin precursor (G76 printed as the residue linked to Ube2N); In the rows of the crystal structure it is the ubiquitin moiety of the conjugate m8, linked by G76 to Ube2N K87; source: E. coli Rosetta 2 DE3, purified (perchloric acid precipitation, cation exchange, SEC)

[1] = target: the molecule itself; test: as above

- binding result (ubiquitin (WT)): binds
B1: TRIM21-RING (residue 1-85) (domain or fragment)
chain: GSHMASAARLTMMWEEVTCPICLDPFVEPVSIECGHSFCQECISQVGKGGGSVCPVCRQRFLLKNLRPNRQLANMVNNLKEISQEARE
notes: tripeptide scar left at the N-terminus after cleavage of the GST tag; TRIM21 RING domain (T21-R), residues 1-85; Wild-type RING; a RING dimer in the crystal (2xT21-R and 2xUbe2N~Ub in the asymmetric unit); also called T21-R; TRIM21 RING domain; source: E. coli C41 DE3 or BL21 DE3, purified (glutathione sepharose, tag cleaved on beads, SEC); not shown: GST, N-terminal, cleaved
- binding result [1]: binds
